Data set [1] has as its target Phosphomannose isomerase from T. kodakarensis (T. kodakarensis). Briefly: SEC.
The data set “SEC” deals with the molecule itself. As to the kind of experiment: SEC.

What is called stoichiometry N is a count of units in the complex or per binding partner. In data set [1], “Phosphomannose isomerase from T. kodakarensis (enzyme)” yielded a stoichiometry N of 2.

B1: Phosphomannose isomerase from T. barophilus (enzyme, UniProt F0LL70 1-113, looked up)
chain: MKAEIKEFIDRGTYRKAPLFEGELPEGSYAQIVEIKPKQTVPKHYHEKQYELFYIISGQAKLGIEEREYDAKPGDIFLVKPKTVHWVVNKKEEPFRLFVIKLNYFGDDSVWLE
B1: the “stoichiometry N” value in the data set “SEC” is 2.

These data come from paper doi:10.1101/2022.04.25.489375 (bioRxiv, 2022).
